In doi:10.1101/343640:

Target: IMCC25003 KatG (bifunctional catalase-peroxidase of strain IMCC25003) ('Ca. Planktophila rubra' IMCC25003 (acI-A1 tribe, freshwater Actinobacteria))
Assay: SEC

## IMCC25003 KatG (bifunctional catalase-peroxidase of strain IMCC25003) (enzyme)
  stoichiometry N: 2
